For assay [1], the target named is T1, human RANK-L (Receptor Activator of Nuclear factor Kappa B Ligand), recombinant (human, UniProt O14788 140-317, limits assumed).
T1 sequence (looked up): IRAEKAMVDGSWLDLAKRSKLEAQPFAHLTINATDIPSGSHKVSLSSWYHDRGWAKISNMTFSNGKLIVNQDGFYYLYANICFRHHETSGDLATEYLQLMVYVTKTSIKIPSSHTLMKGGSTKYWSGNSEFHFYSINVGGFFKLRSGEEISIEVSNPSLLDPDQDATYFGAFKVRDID
Briefly: cell-based or functional assay.

Assay [2] has as its target T1, human RANK-L (Receptor Activator of …). Nature of the assay: SPR (Biacore), human RANK-L immobilised on the chip, ADR03 injected. The protocol: (§1) Measurement of the kinetics of ADR03 binding to human RANK-L was carried out by immobilising human RANKL onto a research grade CMS sensor chip using standard amine coupling. Each of three surfaces is first activated for seven minutes using a 1:1 mixture of […] N-hydroxysuccinimide (NHS) and […] 1-ethyl-3-(3-dimethylaminopropyl)-carbodimide (EDC). Then, the RANK-L sample is diluted 1- to 50-fold in 10 mM sodium acetate, pH 4.0, and exposed to the activated chip surface for different lengths of time (ten seconds to two minutes) to create three different density surfaces of RANK-L. Each surface is then blocked with a seven-minute injection of 1 M ethanolamine, pH 8.2. RANK-L is diluted 100-fold and injected for different amounts of time to be captured at three different surface densities (60 RU, 45 RU, 12 RU; Response Unit (RU) is termed by Biacore and relates to target molecule per surface area) onto a streptavidin-containing sensor chip. The experiments can be performed on a Biacore® 2000 or T100 optical biosensor. ADR03 is supplied at approximately 100 μg/mL and tested in a 3-fold dilution series in Sample Running Buffer over the three RANK-L surfaces. Each of ADR03 concentrations (five, 3-fold dilutions of RANK-L-coupled sensors) is tested three times to assess reproducibility of the assay. Each test is injected at a flow rate of 100 μL/minute for 60 seconds, followed by a three-minute dissociation phase. Bound ADR03 can then be removed using a five-second pulse with sensor regeneration solution. All data is usually collected at a temperature-controlled 20° c. The kinetic responses for the ADR03 injections can be analyzed using the non-linear least squares analysis program CLAMP (Myszka, D. G. and Morton, T. A. (1998) Trends Biochem. Sci., 23: 149-150). Calculations of multivalent interactions can be determined using a model to fit the avidity of the bivalent interaction of ADR03 with RANK-L (Drake et al. (2004) Anal. Biochem., 328: 35-43; and Muller et al., (1998) Anal. Biochem. 261: 149-158).

Assay [3] shares this target. Nature of the assay: SPR (Biacore) sensorgrams with fitted curves; panel headed "pAb+RANKL"; value from the column "KD" of the table drawn in the panel. On the procedure:
as §1, with “The experiments can be performed on a Biacore® 2000 or T100 optical biosensor. ADR03 is supplied at approximately 100 μg/mL and tested in a 3-fold dilution series in Sample Running Buffer over the three RANK-L surfaces. Each of ADR03 concentrations (five, 3-fold dilutions of RANK-L-coupled sensors) is tested three times to assess reproducibility of the assay. Each test is injected at a flow rate of 100 μL/minute for 60 seconds, followed by a three-minute dissociation phase. Bound ADR03 can then be removed using a five-second pulse with sensor regeneration solution. All data is usually collected at a temperature-controlled 20° c.” left out

Values joined by “and” are separate entries in the source; they are usually repeats but may differ in a detail not shown here. Equal entries are not always repeated.

B1: ADR03 i-body (RANK-L binding i-body on the NCAM domain 1 scaffold) (designed binder)
chain: LQVDIVPSQGEISVGESKFFLCQVAGAHTVESISWFSPNGEKLTPNQQRISVVWNDDSSSTLTIYNANIDDAGIYKCVVVASARRGFGWVYPHEATVNVKIFQ
notes: I-bodies were expressed in E. coli with FLAG or penta-His tags; also called ADR3; i-body ADR03
As to B1, the “IC50 of inhibition of hRANK-L-induced production of TRAP positive multinucleated cells (RAW264.7)” value in assay [1] is 100 ng/mL and 3 nM. In assay [2], the Kd worked out at 13.2 nM, the koff was determined as 0.00029 s⁻¹ and the kon is around 23000 M⁻¹ s⁻¹. Also, the Kd in assay [3] came out at 13.2 nM.

Values taken from patent publication US20250297020A1 (ADALTA, published 2025).
